Results on one molecule are retold here after PMC3386215 (Molecular Biology of the Cell, 2012).

For the experiment, the target named is T1, His-Msb3 (S. cerevisiae, UniProt P48566 1-633).
T1 sequence: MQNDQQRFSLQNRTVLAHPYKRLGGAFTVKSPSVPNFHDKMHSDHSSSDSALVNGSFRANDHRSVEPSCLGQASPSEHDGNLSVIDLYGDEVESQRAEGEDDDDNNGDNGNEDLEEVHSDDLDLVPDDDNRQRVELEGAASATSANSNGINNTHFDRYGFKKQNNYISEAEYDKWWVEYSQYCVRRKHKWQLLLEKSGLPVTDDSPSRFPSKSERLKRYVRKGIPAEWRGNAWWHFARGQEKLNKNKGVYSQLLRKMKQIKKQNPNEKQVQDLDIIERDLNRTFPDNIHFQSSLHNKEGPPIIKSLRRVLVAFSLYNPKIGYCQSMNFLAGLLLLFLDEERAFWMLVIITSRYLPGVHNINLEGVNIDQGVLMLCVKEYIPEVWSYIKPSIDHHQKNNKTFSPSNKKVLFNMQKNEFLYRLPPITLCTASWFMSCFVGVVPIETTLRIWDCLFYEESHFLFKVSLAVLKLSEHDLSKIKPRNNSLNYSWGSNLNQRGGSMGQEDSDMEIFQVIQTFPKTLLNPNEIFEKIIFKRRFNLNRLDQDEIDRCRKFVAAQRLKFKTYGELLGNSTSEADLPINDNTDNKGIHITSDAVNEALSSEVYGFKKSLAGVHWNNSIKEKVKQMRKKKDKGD
The experiment can be described thus: pull-down.

B1: GST-Vps21 (preloaded with GDP) (enzyme)
chain: MNTSVTSIKLVLLGEAAVGKSSIVLRFVSNDFAENKEPTIGAAFLTQRVTINEHTVKFEIWDTAGQERFASLAPMYYRNAQAALVVYDVTKPQSFIKARHWVKELHEQASKDIIIALVGNKIDMLQEGGERKVAREEGEKLAEEKGLLFFETSAKTGENVNDVFLGIGEKIPLKTAEEQNSASNERESNNQRVDLNAANDGTSANSACSC
Turning to B1, the binding result was “binds”.
